According to US20220267451A1:
Each block holds one molecule with its values, some of them ahead of it.

Biological target: recombinant IGF-1R extracellular domain (ECD) (UniProt P08069)
Assay: SPR; antibody captured by immobilized anti-Fc, IGF-1R-ECD as analyte, global fit to single site model

Kd: 2.2 nM
koff: 0.00039 s⁻¹
kon: 180000 M⁻¹ s⁻¹
Molecule: teprotumumab (antibody)

Kd: 0.57 nM
koff: 5.1e-05 s⁻¹
kon: 88000 M⁻¹ s⁻¹
B1: VRDN-1100 (antibody, V domains shown)
VH: QVQLVQSGAEVVKPGASVKLSCKASGYTFTSYWMHWVKQRPGQGLEWIGEINPSNGRTNYNQKFQGKATLTVDKSSSTAYMQLSSLTSEDSAVYYFARGRPDYYGSSKWYFDVWGQGTTVTVSS
VL: DVVMTQTPLSLPVSLGDPASISCRSSQSIVHSNVNTYLEWYLQKPGQSPRLLIYKVSNRFSGVPDRFSGSGAGTDFTLRISRVEAEDLGIYYCFQGSHVPPTFGGGTKLEIKR
